Measurements taken from patent publication US9890407B2, “Method for synthesizing cellulose in vitro” (University of Virginia Patent Foundation, priority 2013, dated 2018).

How the values were obtained:
cellulose synthesis [1] = experiment: Cellulose synthesis activity of inverted membrane vesicles / PLs containing BcsA, BcsB or truncated BcsB; assay type: biochemical, Rhodobacter sphaeroides; settings: for catalytic activity (HMW polymer formation): IMVs, 60 min 37° C., with c-di-GMP
Experimental: FIG. 1A-1C (also referred to as Example 1, FIG. 1): BcsA and BcsB are necessary for cellulose synthesis. (FIG. 1A) Inverted membrane vesicles containing either BcsA, BcsB, or both subunits were incubated for 60 min at 37° C. in the presence and absence of c-di-GMP and 0.25 μCi UDP-[^3H]-Glc. The synthesized polymer was purified by descending paper chromatography and quantified by scintillation counting. The amount of product obtained is shown relative to the product formed from IMVs containing BcsA and BcsB. Control reactions were performed with IMVs derived from cells containing an empty pET28a vector or in the absence of c-di-GMP or the presence of 20 mM EDTA. Results are shown in light and dark gray for components from Ec and Rs, respectively. (FIG. 1B) immuno-blotting of IMVs containing BcsA and BcsB. BcsA and BcsB were expressed with C-terminal poly-histidine- and FLAG-tags, respectively, and the equivalent amounts of IMVs used for activity assays were analyzed under non-reducing conditions by western blotting. […]
FIG. 6A-6C (also referred to as Example 1, FIG. 6): The membrane-associated domain of BesB is required for cellulose synthesis. […] IMVs containing wild-type BesA and the indicated BesB constructs were tested for cellulose synthase activity by quantifying the accumulation of radioactively labeled cellulose. […] (FIG. 6C) Western analysis of the analyzed IMVs and PLs. […] The equivalent amounts of IMVs used for activity assays were used to quantify the BcsA and BcsB expression levels. Vesicles containing WT and the BcsA-B-S684-r complex were analyzed on separate gels. […]
Gram-negative bacteria transport cellulose across the inner and outer bacterial membranes. […] To identify the complex components required for cellulose synthesis and translocation across the inner bacterial membrane, we expressed BcsA and BcsB from Escherichia coli (Ec) K12 and Rhodobacter sphaeroides (Rs) in E. coli C43 (28), prepared inverted membrane vesicles (IMVs), and analyzed them for cellulose synthesis activity. […]

cellulose synthesis [2] = assay type: biochemical, Rhodobacter sphaeroides

## BcsA-B-S684: BcsA complexed with BcsB fragment N-terminally truncated to start at Ser684
Cellulose synthesis [1]; purified truncated complex in PLs
  catalytic activity after reconstitution into PLs: catalytically active

B1: BcsA: bacterial cellulose synthase A, catalytic subunit (SEQ ID NO:1) (protein)
chain: MTVRAKARSPLRVVPVLLFLLWVALLVPFGLLAAAPVAPSAQGLIALSAVVLVALLKPFADKMVPRFLLLSAASMLVMRYWFWRLFETLPPPALDASFLFALLLFAVETFSISIFFLNGFLSADPTDRPFPRPLQPEELPTVDILVPSYNEPADMLSVTLAAAKNMIYPARLRTVVLCDDGGTDQRCMSPDPELAQKAQERRRELQQLCRELGVVYSTRERNEHAKAGNMSAALERLKGELVVVFDADHVPSRDFLARTVGYFVEDPDLFLVQTPHFFINPDPIQRNLALGDRCPPENEMFYGKIHRGLDRWGGAFFCGSAAVLRRRALDEAGGFAGETITEDAETALEIHSRGWKSLYIDRAMIAGLQPETFASFIQQRGRWATGMMQMLLLKNPLFRRGLGIAQRLCYLNSMSFWFFPLVRMMFLVAPLIYLFFGIEIFVATFEEVLAYMPGYLAVSFLVQNALFARQRWPLVSEVYEVAQAPYLARAIVTTLLRPRSARFAVTAKDETLSENYISPIYRPLLFTFLLCLSGVLATLVRWVAFPGDRSVLLVVGGWAVLNVLLVGFALRAVAEKQQRRAAPRVQMEVPAEAQIPAFGNRSLTATVLDASTSGVRLLVRLPGVGDPHPALEAGGLIQFQPKFPDAPQLERMVRGRIRSARREGGTVMVGVIFEAGQPIAVRETVAYLIFGESAHWRTMREATMRPIGLLHGMARILWMAAASLPKTARDFMDEPARRRRRHEEPKEKQAHLLAFGTDFSTEPDWAGELLDPTAQVSARPNTVAWGSN
modifications: Rhodobacter sphaeroides
Cellulose synthesis [1]
  catalytic activity (HMW polymer formation): catalytically inactive

B2: BcsB: bacterial cellulose synthase B, periplasmic membrane-anchored subunit (SEQ ID NO:3) (protein)
chain: MDMRLLPFLFLGTLASMAAAQDAPMIVIEGLTSEEPQASPDAVAEAVPAAEVAPWIIPLRPLAETAQVGPLFRLQGQQARAAFRLFLPTEAVGGTLTLAQRSSIDILPESSQIIVRMNDQEIGRFTPRQFGALGAVTMPLGEAVRAGDNLVTIEAQHRHRIYCGADAEFDLWTEVDLSQSGVALPAAAIGTEPTSFIAALTAQAESGRPVEIRTPTPPDEATLRTLAQALGRPLPDEALPLALSKPWSAETGPTYARITLLPSDADRVSIRRGGDGAVVLVLEHPPEGSPNASLVADLLGATPTLPPPTLPQIPPGRVVTLADMGVDTILTDNRYFNRDIDFQLPDDWLLLASQKAQIGIDYGFAGGLPEGALLLVKVNGTTVRMLPLDRDAAPVKPRLDIRFPARLLHPGPNRLSFESVIPGNPPDQPCPASAGDLMQVLSSTDLEVPPSPRMQMADMARDLAQVTPASVHPATPDGLARTLPFMAAFREVPDAAPVDLTVAGLHDIATVPLNEEGLTPRLLALTLLPSTVSRLVERPATPAGPPANALAPLGAAPGEGVMPPLVESNWSDRAQTFVQATLQPVIQTVRRMLRPGDGNLAEWLATRKGTAMLLAPEPGKLWVILGPEAEPARVAEALAMAPRSPGGPRGQVAVLGSDGRWSSWSKPGLLPELREPVSLDNVRSVVGNVASARPPLLLGGMLGLAWISAAIAVGFVLRTRRKGLK
modifications: Rhodobacter sphaeroides
Cellulose synthesis [1]
  catalytic activity (HMW polymer formation): catalytically inactive

B3: E371A (protein)
chain: MGTVRAKARSPLRVVPVLLFLLWVALLVPFGLLAAAPVAPSAQGLIALSAVVLVALLKPFADKMVPRFLLLSAASMLVMRYWFWRLFETLPPPALDASFLFALLLFAVETFSISIFFLNGFLSADPTDRPFPRPLQPEELPTVDILVPSYNEPADMLSVTLAAAKNMIYPARLRTVVLCDDGGTDQRCMSPDPELAQKAQERRRELQQLCRELGVVYSTRERNEHAKAGNMSAALERLKGELVVVFDADHVPSRDFLARTVGYFVEDPDLFLVQTPHFFINPDPIQRNLALGDRCPPENEMFYGKIHRGLDRWGGAFFCGSAAVLRRRALDEAGGFAGETITEDAETALEIHSRGWKSLYIDRAMIAGLQPATFASFIQQRGRWATGMMQMLLLKNPLFRRGLGIAQRLCYLNSMSFWFFPLVRMMFLVAPLIYLFFGIEIFVATFEEVLAYMPGYLAVSFLVQNALFARQRWPLVSEVYEVAQAPYLARAIVTTLLRPRSARFAVTAKDETLSENYISPIYRPLLFTFLLCLSGVLATLVRWVAFPGDRSVLLVVGGWAVLNVLLVGFALRAVAEKQQRRAAPRVQMEVPAEAQIPAFGNRSLTATVLDASTSGVRLLVRLPGVGDPHPALEAGGLIQFQPKFPDAPQLERMVRGRIRSARREGGTVMVGVIFEAGQPIAVRETVAYLIFGESAHWRTMREATMRPIGLLHGMARILWMAAASLPKTARDFMDEPARRRRRHEEPKEKQAHLLAFGTDFSTEPDWAGELLDPTAQVSARPNTVAWGSNHHHHHHKLHHHHHH
Cellulose synthesis [2]; no c-di-GMP, IMVs and PLs
  increase of catalytic activity in the absence of c-di-GMP compared to wild type enzyme: approximately 6 fold

B4: R580A (protein)
chain: MGTVRAKARSPLRVVPVLLFLLWVALLVPFGLLAAAPVAPSAQGLIALSAVVLVALLKPFADKMVPRFLLLSAASMLVMRYWFWRLFETLPPPALDASFLFALLLFAVETFSISIFFLNGFLSADPTDRPFPRPLQPEELPTVDILVPSYNEPADMLSVTLAAAKNMIYPARLRTVVLCDDGGTDQRCMSPDPELAQKAQERRRELQQLCRELGVVYSTRERNEHAKAGNMSAALERLKGELVVVFDADHVPSRDFLARTVGYFVEDPDLFLVQTPHFFINPDPIQRNLALGDRCPPENEMFYGKIHRGLDRWGGAFFCGSAAVLRRRALDEAGGFAGETITEDAETALEIHSRGWKSLYIDRAMIAGLQPETFASFIQQRGRWATGMMQMLLLKNPLFRRGLGIAQRLCYLNSMSFWFFPLVRMMFLVAPLIYLFFGIEIFVATFEEVLAYMPGYLAVSFLVQNALFARQRWPLVSEVYEVAQAPYLARAIVTTLLRPRSARFAVTAKDETLSENYISPIYRPLLFTFLLCLSGVLATLVRWVAFPGDRSVLLVVGGWAVLNVLLVGFALRAVAEKQQRAAAPRVQMEVPAEAQIPAFGNRSLTATVLDASTSGVRLLVRLPGVGDPHPALEAGGLIQFQPKFPDAPQLERMVRGRIRSARREGGTVMVGVIFEAGQPIAVRETVAYLIFGESAHWRTMREATMRPIGLLHGMARILWMAAASLPKTARDFMDEPARRRRRHEEPKEKQAHLLAFGTDFSTEPDWAGELLDPTAQVSARPNTVAWGSNHHHHHHKLHHHHHH
Cellulose synthesis [2]; formation of cellulose or UDP, with and without 30 μM c-di-GMP
  dependence of catalytic activity on c-di-GMP: constitutively active
